{"source": "paper PMC3197598", "about": "“Preventing Staphylococcus aureus Sepsis through the Inhibition of Its Agglutination in Blood” (PLoS Pathogens, 2011)", "target": "T1, human fibrinogen (human, UniProt P02671-2 20-644; P02675 31-491; P02679-2 27-437)", "T1 construct": "fibrinogen A-alpha chain, human; fibrinogen B-beta chain, human; fibrinogen gamma chain, human; Coated on MaxSorb ELISA plates; also called Fbgn; source: bought: Sigma; copies: 2 + 2 + 2", "T1 sequence (looked up) 1": "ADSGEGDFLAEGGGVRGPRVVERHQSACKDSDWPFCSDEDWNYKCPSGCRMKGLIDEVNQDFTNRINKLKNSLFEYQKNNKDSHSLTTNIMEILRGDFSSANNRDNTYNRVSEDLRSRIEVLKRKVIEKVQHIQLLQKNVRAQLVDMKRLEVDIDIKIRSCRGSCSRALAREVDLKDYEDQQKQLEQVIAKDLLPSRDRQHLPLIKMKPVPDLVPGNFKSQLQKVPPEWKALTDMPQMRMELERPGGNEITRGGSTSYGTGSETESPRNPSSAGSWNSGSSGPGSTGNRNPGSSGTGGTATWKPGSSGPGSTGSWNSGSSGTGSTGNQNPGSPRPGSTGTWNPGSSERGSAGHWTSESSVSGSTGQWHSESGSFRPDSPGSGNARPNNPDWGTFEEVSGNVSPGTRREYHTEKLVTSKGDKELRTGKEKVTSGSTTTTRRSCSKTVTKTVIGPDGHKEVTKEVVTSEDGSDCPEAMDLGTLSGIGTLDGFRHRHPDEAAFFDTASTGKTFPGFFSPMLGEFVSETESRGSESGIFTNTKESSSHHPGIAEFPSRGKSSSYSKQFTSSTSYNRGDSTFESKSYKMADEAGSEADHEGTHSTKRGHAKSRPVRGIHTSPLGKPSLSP", "T1 sequence (looked up) 2": "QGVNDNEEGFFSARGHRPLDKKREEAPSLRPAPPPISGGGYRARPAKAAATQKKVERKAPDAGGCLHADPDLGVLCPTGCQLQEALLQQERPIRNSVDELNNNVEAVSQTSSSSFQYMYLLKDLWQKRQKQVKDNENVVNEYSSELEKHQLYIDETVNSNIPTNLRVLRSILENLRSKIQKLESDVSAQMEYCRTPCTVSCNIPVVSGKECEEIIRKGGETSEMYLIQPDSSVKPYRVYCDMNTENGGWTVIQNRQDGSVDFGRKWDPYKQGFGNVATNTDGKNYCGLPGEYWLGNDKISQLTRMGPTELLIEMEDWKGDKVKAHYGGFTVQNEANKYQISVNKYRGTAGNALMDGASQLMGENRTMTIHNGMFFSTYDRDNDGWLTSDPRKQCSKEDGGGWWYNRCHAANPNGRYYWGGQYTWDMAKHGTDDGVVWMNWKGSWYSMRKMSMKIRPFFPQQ", "T1 sequence (looked up) 3": "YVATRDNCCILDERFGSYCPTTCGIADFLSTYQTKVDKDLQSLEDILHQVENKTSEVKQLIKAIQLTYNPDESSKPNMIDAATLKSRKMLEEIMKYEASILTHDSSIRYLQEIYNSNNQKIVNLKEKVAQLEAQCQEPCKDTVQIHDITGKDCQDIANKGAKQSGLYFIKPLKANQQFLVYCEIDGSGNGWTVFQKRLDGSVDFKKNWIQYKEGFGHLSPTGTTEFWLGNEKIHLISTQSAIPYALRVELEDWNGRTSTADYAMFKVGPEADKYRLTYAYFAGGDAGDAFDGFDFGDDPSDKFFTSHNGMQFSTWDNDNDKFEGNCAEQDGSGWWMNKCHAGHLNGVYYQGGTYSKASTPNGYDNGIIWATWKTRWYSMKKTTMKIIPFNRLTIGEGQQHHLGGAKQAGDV", "test": "ELISA; human fibrinogen coated overnight on MaxSorb 96-well plates, wells treated with PBS (fibrinogen) or 100 nM alpha-thrombin in 1% sodium-citrate/PBS for one hour at room temperature (fibrin); ClfA in 1% sodium-citrate added at increasing concentrations for one hour; bound ClfA detected with polyclonal anti-ClfA and anti-rabbit-HRP; non-linear regression, one-site saturation", "details": "both partners purified", "data": [{"binder": "clumping factor A (ClfA), purified recombinant (natural protein, clumping factor A (ClfA) of Staphylococcus aureus; strain Newman is the strain worked with; it would add an N-terminal His tag (surmised); also called His6-ClfA; source: E. coli BL21(DE3), purified (Ni-NTA)) not shown", "values": [{"measurement": "Kd", "value": "395 ± 51.8", "unit": "nM"}]}]}
